Our source for the dH values is paper PMC8807725, “EPHA2 mediates PDGFA activity and functions together with PDGFRA as prognostic marker and therapeutic target in glioblastoma” (Signal Transduction and Targeted Therapy, 2022).

The target of this test is T1, recombinant human PDGF-AA (human, UniProt P04085 87-211).
T1 construct: Platelet-derived growth factor subunit A (PDGFA), human, recombinant homodimer PDGF-AA; Added to cells at 100 ng/ml; Commercial PDGF-AA is normally the mature chain; also called recombinant human PDGFA homodimer; source: recombinant human protein
Put plainly: ITC; Microcal iTC200; recombinant human receptor extracellular domain and recombinant human PDGF-AA. The note with it: both partners purified. (In general: In ITC the heat of successive injections is recorded.)

B1: recombinant human PDGFRA extracellular domain fused with IgG Fc (rhRA-ECD-Fc) (Fc fusion, UniProt P16234 24-528, looked up)
chain: QLSLPSILPNENEKVVQLNSSFSLRCFGESEVSWQYPMSEEESSDVEIRNEENNSGLFVTVLEVSSASAAHTGLYTCYYNHTQTEENELEGRHIYIYVPDPDVAFVPLGMTDYLVIVEDDDSAIIPCRTTDPETPVTLHNSEGVVPASYDSRQGFNGTFTVGPYICEATVKGKKFQTIPFNVYALKATSELDLEMEALKTVYKSGETIVVTCAVFNNEVVDLQWTYPGEVKGKGITMLEEIKVPSIKLVYTLTVPEATVKDSGDYECAARQATREVKEMKKVTISVHEKGFIEIKPTFSQLEAVNLHEVKHFVVEVRAYPPPRISWLKNNLTLIENLTEITTDVEKIQEIRYRSKLKLIRAKEEDSGHYTIVAQNEDAVKSYTFELLTQVPSSILDLVDDHHGSTGGQTVRCTAEGTPLPDIEWMICKDIKKCNNETSWTILANNVSNIITEIHSRDRSTVEGRVTFAKVEETIAVRCLAKNLLGAENRELKLVAPTLRSELTVA
notes: Platelet-derived growth factor receptor alpha (PDGFRA), human, extracellular domain; Species and subclass of the IgG Fc, construct limits and supplier are not in the main text; also called recombinant PDGFRA extracellular domain; source: recombinant human protein
On to B1, for which the dH is -1070 ± 117.
